Laboratory results: patent US20230235054A1 (BIOATLA, published 2023)
Where a chain is given by its changes, count along the chain named.

T1: cynoNectin4 antigen (cynomolgus (cyno), UniProt A0A2K5WES1 32-349)
T1 construct: construct not described; also called cynomolgus (cyno) Nectin-4
T1 sequence: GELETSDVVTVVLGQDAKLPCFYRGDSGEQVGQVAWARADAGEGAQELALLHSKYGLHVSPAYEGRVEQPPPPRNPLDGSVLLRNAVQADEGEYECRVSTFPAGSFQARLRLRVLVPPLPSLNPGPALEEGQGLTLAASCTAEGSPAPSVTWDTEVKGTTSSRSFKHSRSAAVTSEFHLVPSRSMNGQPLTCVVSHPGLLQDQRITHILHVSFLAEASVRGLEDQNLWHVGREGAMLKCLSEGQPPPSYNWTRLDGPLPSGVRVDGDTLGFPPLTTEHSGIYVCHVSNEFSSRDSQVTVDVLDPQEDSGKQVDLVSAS

T2: recombinant human Nectin4 antigen (human, UniProt Q96NY8 32-349)
T2 construct: construct not described
T2 sequence (looked up): T1 sequence with A39V, V230I

T3: RatNectin4-His (rat, UniProt D3ZET1 31-348)
T3 construct: Immobilized on the SPR chip; not shown: His tag
T3 sequence: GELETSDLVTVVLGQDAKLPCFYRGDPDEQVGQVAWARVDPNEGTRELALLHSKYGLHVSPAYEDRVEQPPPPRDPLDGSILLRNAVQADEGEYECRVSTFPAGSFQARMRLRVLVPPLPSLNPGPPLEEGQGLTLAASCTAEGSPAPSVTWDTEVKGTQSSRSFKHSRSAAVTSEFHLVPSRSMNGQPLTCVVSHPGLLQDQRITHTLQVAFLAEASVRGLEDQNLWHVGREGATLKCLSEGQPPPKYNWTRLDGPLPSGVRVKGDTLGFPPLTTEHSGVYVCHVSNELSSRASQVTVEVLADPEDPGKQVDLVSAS

B1: BAP-143-06-24-16 (antibody, V domains shown)
VH: EVQLVQSGAEVKKPGATVKISCKVSGFTFSSYNMNWIRQSPSRGLEWLGYISSSSSTIYYADSVKGRFTISRDNSKNTLYLQMNSLRAEDTAVYYCARAYYYGDDVWGQGTLVTVSS
VL: DIQMTQSPSSVSASVGDRVTITCHASQGISGWLAWYQQKPGKAPKFLIYAASTLQSGVPSRFSGSGSGTDFTLTISSLQPEDFATYYCQQANSFPPTFGGGTKVEIK
notes: Used as a conjugate with a linker payload (CAB ADC)
B2: BAP-143-06-33-03 (antibody, V domains shown)
VH: QVQLVQSGAEVKKPGASVKVSCKASGFTFSSYNMNWVRQARGQRLEWIGYISSSSSTIYYADSVKGRFTISRDNSKNTLYLQMNSLRAEDTAVYYCARAYYYGMDKWGQGTLVTVSS
VL: B1 VL with H24R, F94E
notes: as for B1
B3: BAP-143-07-03-12 (antibody, V domains shown)
VH: EVQLVESGGGLVQPGGSLRLSCAASGFTFSSYNMNWVRQAPGKGLEWVSYISSSSSTIYYADSVKGRFTISRDNAKNSLSLQMNSLRDEDTAVYYCARAYYYGMDKWGQGTTVTVSS
VL: B1 VL with H24R, L33E
notes: as for B1
B4: BAP-143-00-06 (antibody, V domains shown)
VH: B3 VH with M104D, K106V
VL: B1 VL with H24R
notes: as for B1
B5: BAP-143-00-03 (antibody, V domains shown)
VH: B3 VH with K106V
VL: B1 VL with H24R, P96D
notes: as for B1
B6: BAP-143-00-05 (antibody, V domains shown)
VH: B3 VH with R98E, K106V
VL: B1 VL with H24R
notes: as for B1
B7: BAP-143-00-04 (antibody, V domains shown)
VH: B3 VH with M34D, K106V
VL: B1 VL with H24R
notes: as for B1
B8: BAP-143-wildtype (antibody, V domains shown)
VH: B3 VH with K106V
VL: B1 VL with H24R
notes: 150 kDa used in SPR; also called BAP143-00-00; benchmark (BM)
B9: BAP-143-00-01 (antibody, V domains shown)
VH: B3 VH with K106V
VL: B1 VL with H24R, L33E
notes: as for B1
B10: BAP-143-06-33-16 (antibody, V domains shown)
VH: B1 VH
VL: B1 VL with H24R, L33E
notes: as for B1

target: T1, cynoNectin4 antigen; assay: ELISA, ratio of EC50s
Method: (§1) 1) Coat ELISA plates with 100 μL of 1 μg/mL recombinant human Nectin4 antigen or cynoNectin4 antigen in carbonate-bicarbonate coating buffer. […] 2) Cover plates with sealing film and incubate overnight at 4° C. [0444] 3) Decant plates and tap out residual liquid on a stack of paper towels. [0445] 4) Wash wells twice by dispensing 200 μL of pH 6.0 or pH 7.4 ELISA incubation buffer to the wells and completely aspirate the contents. [0446] 5) Add 200 μL of pH 6.0 or pH 7.4 ELISA incubation buffer to the wells. Cover with sealing film and place the plate onto a plate shaker set to 50 rpm for 60 minutes at room temperature. [0447] 6) Decant plates and tap out residual liquid on a stack of paper towels. […] 7) Serially dilute test articles in 3-fold dilutions starting at 3000 ng/mL in pH 6.0 or pH 7.4 ELISA incubation buffer. […] 8) Add 100 μL/well of diluted test articles to the plates [0450] 9) Cover with sealing film and place the plates onto a plate shaker set to 50 rpm for 60 minutes at room temperature. [0451] 10) Decant plates and tap out residual liquid on a stack of paper towels. [0452] 11) Wash wells three times by dispensing 200 μL of pH 6.0 or pH 7.4 ELISA wash buffer to the wells and completely aspirate the contents. […] 12) Dilute the HRP secondary antibody at 1:2500 in pH 6.0 or pH 7.4 ELISA incubation buffer. [0454] […] 14) Cover with sealing film and place the plates onto a plate shaker set to 50 rpm for 60 minutes at room temperature. […] 15) Decant plates and tap out residual liquid on a stack of paper towels. […] 16) Wash wells three times by dispensing 200 μL of pH 6.0 or pH 7.4 ELISA wash buffer to the wells and completely aspirate the contents. [0458] 17) Dispense 50 μL per well of the TMB substrate solution into all wells of the plates.

Row | EC50 ratio pH 7.4/6.0 | Binder
1 | 1.08 | B1
2 | 1.83 | B2
3 | 3.6 | B3

target: T2, recombinant human Nectin4 antigen; assay: ELISA, ratio of EC50s
Method: as §1

Row | EC50 ratio pH 7.4/6.0 | EC50 ratio pH 7.4/pH 6.0 | Binder
4 | 3.63 | – | B1
5 | – | 2.83 | B4
6 | – | 7.13 | B5
7 | – | 3.2 | B6
8 | – | 2.37 | B7

target: T3, RatNectin4-His; assay: SPR, RatNectin4-His immobilized, pH 6.0
Method: All injections were done at a flow rate of 25 μL/min at 25° C. The sensor surface was activated with 1-ethyl-3-(3-dimethylaminopropyl)-carbodiimide (EDC) and N-hydroxysuccinimide (NHS) (200 mM/50 mM) for 480 seconds. HuNectin4-His (2 μg/mL in 10 mM NaAc, pH4.5) was injected for 480s and the surface was inactivated by injecting 1M ethanolamine-HCl for 480s. CynoNectin4 was immobilized using the same conditions as described for huNectin4-His, except that the cynoNectin4 was diluted into 10 mM NaAc buffer having pH 5.0. The control surface was activated and deactivated using the same conditions, but without injecting protein. PBST buffer (PBS pH 7.4 with 0.05% TWEEN20™) was used as running buffer for the surface preparation. The running solution was switched to PBST with 30 mM sodium bicarbonate with the pH adjusted as indicated in the figures before the analyte injections. The instrument was equilibrated with the running solution for one hour before the first analyte injection.
The off-rate was measured for 360s. The chip surface was regenerated after each cycle of interaction analysis by injecting 6 μL of 10 mM glycine (pH 2.0). Flow cells 1 and 3 without immobilized protein were used as control surfaces for reference subtraction.
In addition, data with buffer only as analyte (0 nM analyte) was subtracted from each run. Double subtracted data was fitted with the provided analysis software Analyzer R2 (Sierra Sensors) using a 1:1 binding model. A molecular weight of 150 kDa was used to calculate the molar concentrations of the analytes. RatNectin4-His was immobilized in FC3 using the same conditions as described for cynoNectin4.

Row | Kd | koff | kon | Binder
9 | 0.175 nM | – | – | B8
10 | 0.104 nM | 0.000635 s⁻¹ | 6.1e+06 M⁻¹ s⁻¹ | B1
11 | 1.17 nM | 0.00159 s⁻¹ | 1.36e+06 M⁻¹ s⁻¹ | B9
12 | 0.738 nM | 0.0012 s⁻¹ | 1.62e+06 M⁻¹ s⁻¹ | B3
13 | 0.154 nM | 0.000394 s⁻¹ | 2.57e+06 M⁻¹ s⁻¹ | B10
